In PMC12119765, “Unveiling the potential of copper-61 vs. gallium-68 for SSTR PET imaging” (European Journal of Nuclear Medicine and Molecular Imaging, 2025):

Legend:
healthy control mice = experiment: PET/MR imaging in healthy control mice; assay type: in vivo
Description: (§1) A set of fiducial markers was used for an optimal PET/MRI co-registration. The breathing rate and body temperature of the animals were monitored throughout the imaging procedures (SA Instruments SA, USA). After the PET scan, a whole-body MRI was performed on a BioSpec 9.4T MRI scanner with a body volume resonator (transmitter/receiver) with the animal in the same position for anatomical co-localization. Anatomical reference images were obtained from axial and coronal multi-slice scans. A set of fiducial markers were used on the animal bed for an optimal PET/MRI co-registration. Quantitative image processing was performed using PMOD (PMOD, v 3.6; PMOD Technologies, Zürich, Switzerland, RRID: SCR_016547). FUSION Tools were used to deliniate volumes of interest (VOIs) on the PET images co-registered with the anatomical MRI. Blood samples were collected at 1, 2, and 4 h after injection for measurement of whole-blood radioactivity concentrations.

[1] = In vitro stability in the final formulation (10% EtOH) by radioHPLC; assay type: physicochemical
Description: The HPLC method used is detailed in Table 1.
The stability of [^61Cu]Cu-NOTA-TATE was tested in the final formulation up to 6 h after EOS. At different time points (T0, T0 + 2, T0 + 4 and T0 + 6 h) aliquots were taken and measured using the previously described radioHPLC method.

[2] = tested on: SSTR-expressing AR42J cells; experiment: Cell uptake and internalization studies in SSTR-expressing AR42J cells; assay type: cell-based, rat; conditions: for Intracellular (internalized) activity: 2 h incubation time, 0.5 nM, Fig. 2C, percentage per million cells; for Maximum total uptake into AR42J: at 2 h, 0.5 nM radiolabeled peptide; for Membrane-bound fraction over time: glycine buffer wash fraction, 15 min to 2 h
Description: The AR42J cell line, a natural SSTR-overexpressing epithelial-like cell isolated from a rat pancreatic tumor, was purchased from American Type Culture Collection (ATCC, CRL-1492) (Manassas, VA, USA) and cultured in F-12 K medium (ATCC, Catalog No. 30-2004) supplemented with 20% heat-inactivated fetal bovine serum (FBS, Gibco) and 1% PenStrep. The cells were maintained under standard adherent conditions in a humidified incubator with 5% CO2 at 37° C.
Cells were incubated at 37 °C for a maximum of 2–4 h (15 min, 30 min, 1 h, 2 h, and 4 h) for ^68Ga-based and ^61Cu-based radiopharmaceuticals, respectively. At the indicated time points, the cellular uptake was terminated by washing the cells with PBS. Cell surface-bound radioactivity was removed by an acid wash (50 mM glycine, pH 2.8) at RT for 5 min. The pH was neutralized with PBS, and the cells were lysed by incubation with 1 M NaOH at 37 °C for 5 min to determine internalized radioactivity. Each experiment was performed in triplicate. […] For blocking studies, parallel experiments were performed as described above, but cells were incubated in the presence of DOTA-TATE precursor (0.5 µM) at 37 °C for the same time points.

in vivo [3] = conditions: male, athymic Swiss Foxn1nu, mouse, intravenous, total radioactivity; for tissue uptake at 1 h: AR42J tumor
Description: (§2) Animal studies were approved by the Animal Welfare Committee of the Institute for Nuclear Sciences Applied to Health (ICNAS) of University of Coimbra (ORBEA 05-2024) and by the Portuguese National Authority for Animal Health (DGAV). Athymic male Swiss Foxn1nu mice (28–32 g, 6–8 weeks old) were purchased from ICNAS and housed under pathogen free conditions in individually ventilated cages. To establish the tumor model, animals were injected subcutaneously in the left flank with 3 × 10^6 AR42J cells resuspended in 100 µL of PBS 50 with 50% Matrigel. Tumor growth was monitored twice weekly by caliper measurements and were allowed to grow to a maximum volume of 1 cm^3.
(§3) Mice were sacrificed at 1.5–4.5 h p.i. and perfused with PBS. Organs including brain, heart, lung, liver, kidney, spleen, stomach, intestine, bone, and muscle were collected and weighted. Blood samples were collected via tail vein bleeding at different time points to monitor the residence time of the radiopharmaceuticals in the circulation. After sacrifice, urine was directly collected from the bladder for radio-HPLC analysis of radiopharmaceutical integrity. The radioactivity of each sample was measured using an automated CRC-55tW gamma well counter (Mirion Technologies - Atlanta, GA, USA). Results were expressed as the percentage of injected dose per gram (ID/g) of tissue and presented as the mean ± SEM (N = 3 per radiopharmaceutical).

AR42J tumor-bearing mice = experiment: in vivo; conditions: AR42J tumor, 4 h p.i., mean ± SEM, N = 3
Description: as §2, §3

in vivo [4] = conditions: male, athymic Swiss Foxn1nu, mouse, whole blood, total radioactivity
Description: as §1, §3

[5] = urine sample collected 4 h after i.v. injection
Description: as §3

[6] = tested on: AR42J subcutaneous tumor-bearing mice; conditions: 1 h p.i., i.v.
Description: as §2
as §1, with “Anatomical reference images were obtained from axial and coronal multi-slice scans. A set of fiducial markers were used on the animal bed for an optimal PET/MRI co-registration.” left out, “FUSION Tools were used to deliniate volumes of interest (VOIs) on the PET images co-registered with the anatomical MRI.” left out

tumor = tested on: tumor; set-up: method as in PMID 32297029; conditions: cited from earlier work

Q: With [Cl][Cu][Cl] [[^61Cu]CuCl2, copper chloride, reference compound] as the compound, how does the “Biodistribution profile in PET/MR images” value (healthy control mice; healthy mice, 1 h after injection) read?
A: accumulation profile of free copper in the liver and the intestine

Q: For C[C@@H](O)[C@H](NC(=O)[C@@H]1CSSC[C@H](NC(=O)[C@@H](Cc2ccccc2)NC(=O)CN2CCN(CC(=O)O)CCN(CC(=O)O)CC2)C(=O)N[C@@H](Cc2ccc(O)cc2)C(=O)N[C@H](Cc2c[nH]c3ccccc23)C(=O)N[C@@H](CCCCN)C(=O)N[C@@H]([C@@H](C)O)C(=O)N1)C(=O)O [[^61Cu]Cu-NOTA-TATE, metal not drawn], which “Time stable after EOS” value ([1]; after the EOS) is on record?
A: at least 6 h

Q: And the “In vitro stability (radiochemical purity by radioHPLC)” value ([1]; final formulation (10% EtOH), after 6 h of incubation)?
A: > 95%

Q: And the “Intracellular (internalized) activity” value [2]?
A: 51.4%

Q: What about the “Maximum total uptake into AR42J” value [2] of the same compound?
A: 58.6 ± 3.6 %/10^6 cells

Q: And the “Membrane-bound fraction over time” value [2]?
A: ≤ 10%

Q: What about the “Biodistribution profile in PET/MR images” value (healthy control mice; healthy control mice, 1 h and 4 h p.i.) of the same compound?
A: rapid clearance with marked accumulation in the kidneys and bladder

Q: What about the tissue uptake at 1 h (in vivo [3]) of the same compound?
A: 13.2 ± 1.86 %ID/g

Q: And the tissue to tissue ratio at 1 h (in vivo [3]; tumor and kidney)?
A: 4.25 ± 1.09

Q: And the tissue to tissue ratio at 4 h (in vivo [3]; tumor and kidney)?
A: 17.3 ± 4.99

Q: And the tissue to tissue ratio at 1 h (in vivo [3]; tumor and liver)?
A: 14.1 ± 4.29

Q: And the tissue to tissue ratio at 4 h (in vivo [3]; tumor and liver)?
A: 21 ± 1.28

Q: What about the tissue to tissue ratio at 1 h (in vivo [3]; tumor and muscle) of the same compound?
A: 255 ± 64.7

Q: And the tissue to tissue ratio at 4 h (in vivo [3]; tumor and muscle)?
A: 495 ± 109

Q: And the “Tumor uptake (tumor activity)” value (AR42J tumor-bearing mice)?
A: 12.81 ± 0.57 % ID/g

Q: What about the tissue uptake at 2 h (in vivo [4]; intravenous) of the same compound?
A: 0.13 ± 0.02 %ID/g

Q: What about the tissue uptake at 4 h (in vivo [4]; intravenous) of the same compound?
A: 0.09 ± 0.004 %ID/g

Q: And the tissue uptake at 1 h (in vivo [4]; iv)?
A: 0.19 ± 0.003 %ID/g

Q: And the “Intact radiopharmaceutical in urine (radioHPLC)” value [5]?
A: 100%

Q: Which results are given for C[C@@H](O)[C@H](NC(=O)[C@@H]1CSSC[C@H](NC(=O)[C@@H](Cc2ccccc2)NC(=O)CN2CCN(CC(=O)O)CCN(CC(=O)O)CCN(CC(=O)O)CC2)C(=O)N[C@@H](Cc2ccc(O)cc2)C(=O)N[C@H](Cc2c[nH]c3ccccc23)C(=O)N[C@@H](CCCCN)C(=O)N[C@@H]([C@@H](C)O)C(=O)N1)C(=O)O [[^68Ga]Ga-DOTA-TATE, metal not drawn, reference compound]?
A: Intracellular (internalized) activity [2]: 51.2%; Maximum total uptake into AR42J [2]: 62.5 ± 1.9 %/10^6 cells; Membrane-bound fraction over time [2]: ≤ 10%; Biodistribution profile in PET/MR images [6]: significant tumor and bladder accumulation; tissue uptake at 1 h (in vivo [3]): 8.73 ± 0.45 %ID/g; Tumor uptake (tumor): 3.14 ± 2.07%
